# Experimental data as given in patent US20250355001A1, “METHOD FOR DETECTING A TAU PROTEIN FRAGMENT IN A SAMPLE” (GTINVENT LIMITED, priority 2022, published 2025).
# B1: E1E8: dGAE (391E) specific clone, Table 9; SEQ ID NO: 250 (protein)
# scFv: QVQLQESGPSLVKPSQTLSLTCTVSGFSLTDWGVAWVRQAPGKALEWLGTMRSGGTTDDNPALKSRLSITRDTSKSQVSLSLSSVTTEDMAMYYCARGYLSGVHYAWGRGLLVTVSSEGKSSGASGESKVDDQAVLTQPSSVSGSLGQSVSITCSGSSSNVGDGRYVSWFQQVPGSAPKLLIYDTTSRASGVPDRFSGSRSGNTATLIITSLQAEDEADYYCASIDSGNNLLFGSGTRLTVLG
# modifications: E1E8 amino acid sequence
# B2: S1D12 mAb: S1D12 reformatted; heavy chain SEQ ID NO: 445, light chain 446 (antibody)
# heavy: QVQLQESGPSLVKPSQTLSLTCTVSGFSLNNNAVGWVRQAPGKVPESLVGCSSDGTCYYNSALKSRLDITRDTSKNQISLSLSSVTTDDAAVYYCTRGHYSIYGYDYLGTIDYWGPGLLVTVSSAKTTAPSVYPLAPVCGDTTGSSVTLGCLVKGYFPEPVTLTWNSGSLSSGVHTFPAVLQSDLYTLSSSVTVTSSTWPSQSITCNVAHPASSTKVDKKIEPRGPTIKPCPPCKCPAPNLLGGPSVFIFPPKIKDVLMISLSPIVTCVVVDVSEDDPDVQISWFVNNVEVHTAQTQTHREDYNSTLRVVSALPIQHQDWMSGKEFKCKVNNKDLPAPIERTISKPKGSVRAPQVYVLPPPEEEMTKKQVTLTCMVTDFMPEDIYVEWTNNGKTELNYKNTEPVLDSDGSYFMYSKLRVEKKNWVERNSYSCSVVHEGLHNHHTTKSFSRTPGK
# light: QAVLTQPSSVSGSLGQRVSITCSGSSSNVGGGNSVGWYQHLPGSGLKTIIYDTNSRPSGVPDRFSGSRSGNTATLTINSLQAEDEGDYYCVTGDSTTHDDLVGSGTRLTVLGGQPKSSPSVTLFPPSSEELETNKATLVCTITDFYPGVVTVDWKVDGTPVTQGMETTQPSKQSNNKYMASSYLTLTARAWERHSSYSCQVTHEGHTVEKSLSRADCS
# modifications: S1D12 mAB Heavy Chain; S1D12 mAB Light Chain
# B3: E2E8: dGAE (391E) specific clone, Table 9; SEQ ID NO: 248 (protein)
# scFv: QVQLQESGPSLVKPSQTLSLTCTVSGFSLTDRGVAWVRQAPGKALEWVGTMRSGGTIDYNPALKSRLSITRDTSKSQVFLSLSSVTTEDMAMYYCARGYLSGDRYAWGRGLLVTVSSEGKSSGASGESKVDDQAVLTQPSSVSKSLGQSVSIACSGSRSDIGYGNYVSWFQQIPGSAPKLLIYDTNTRASGVPDRFSGARSGNTATLTINSLQAEDEADYYCANIDSSRSHLFGSGTRLTVLG
# modifications: E2E8 amino acid sequence
# Key:
# dGAE (SEQ ID NO: 4) = dGAE (SEQ ID NO: 4) (Homo sapiens, UniProt P10636); experiment: Biacore X100 SPR kinetics of scAbs for dGAE; type: binding; conditions: Table 24, scAb, dGAE analyte; for Kd: dissociation rate
# dGAE (SEQ ID NO: 4), sequence (P10636 614-708): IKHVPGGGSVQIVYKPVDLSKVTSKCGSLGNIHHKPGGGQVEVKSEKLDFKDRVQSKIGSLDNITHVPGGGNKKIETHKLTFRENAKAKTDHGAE
# Procedure: Surface plasmon resonance (SPR) is widely regarded as the gold standard for real time measurement of protein-protein interactions such as antibody binding. All SPR experiments were carried out using a Biacore X100 machine and HBS EP+ running buffer (GE Healthcare). A ‘capture’ method was followed for affinity measurements, where an anti-human constant kappa chain (HuCk) antibody was conjugated to the surface of a CM5 sensor chip using an amine coupling kit and scAb molecules were immobilised via their HuCk domain. Amine coupling is a very common approach for immobilising the ligand to the chip surface. The chip surface has a dextran matrix derivatised with carboxyl groups, which after activation with N-hydroxysuccinimide (NHS) and 1-ethyl-3-(3-dimethylaminopropyl) carbodiimide (EDC), form reactive succinimide esters which allows the covalent capturing of the ligand via any available primary amine groups (e.g. Lysine) on the ligand (in this case anti-HuCk antibody). The capture antibody was diluted 1/100 in 10 mM Sodium acetate buffer pH 5.0 and passed over the activated chip surface for a period of at least 420 s. Final ligand immobilisation levels over 12,000 RU were deemed to be satisfactory.
# Following immobilisation, the level of each scAb to be captured was identified using the standard SPR equation with a theoretical RMax of 100 RU. Analyte MW refers to the molecular weight of hT40 or dGA/dGAE molecules, while ligand MW refers to the molecular weight of the scAbs tested. RL is the desired capture level and S refers to the stoichiometric ratio:
# The scAb to be tested was added only to flow cell 2 so that flow cell 1 could act as a control to subtract any interaction with the analyte and the chip surface. Both single and multi-cycle runs were utilised using wizards developed in the Biacore X100 control software which are both accepted methods of kinetic analysis (Karlsson, R., et al. Analyzing a kinetic titration series using affinity biosensors (2006) Analytical Biochemistry 349:136-47). The multi-cycle protocol was as follows-Three start-up cycles composed of an initial capture, to the desired level, of the scAb to be tested was performed followed by a 30 s injection of glycine buffer pH 2.0 after each cycle to regenerate the chip surface. The regeneration step removed any captured scAb whilst leaving the capture antibody intact and able to repeat the capture for the next cycle. […]
# The single cycle kinetics protocol was similar and utilised the same level of scAb capture. […] Binding responses were analysed in Biacore X100 evaluation software and data fitted to a 1:1 binding model to obtain kinetic and affinity characterisation.
# [1] = test system: hT40, dGA, dGAE and truncated tau fragments; experiment: Binding ELISA / epitope mapping of anti-tau scAbs with truncated tau proteins and 13mer peptides; set-up: species or system human; conditions: for cross-reactivity using hT40, dGA and dGAE antigens: ELISA, 'E' group scAbs; for Tau proteins/fragments with positive scAb reactivity: Table 15, binding ELISA, residue numbers of hT40
# Summary of the method: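 Serially double-diluted scAbs were applied to 2% MPBS-blocked wells carrying either 1 μg/ml full-length or truncated tau, or biotinylated 13mer peptides (1 μg/ml) captured on 5 μg/ml streptavidin. Absorbance after HRP anti-human C kappa secondary gave the binding signal.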
# [2] = test system: core tau in plasma of wildtype, Line 1 and Line 66 mice; experiment: S1D12 mAb 6-week repeat-dose mouse study; plasma tau by CA4-S1G2 Simoa; type: in vivo; conditions: for plasma tau (CA4-S1G2 Simoa): 30 mg/kg i.p. once per week, six weeks
# Procedure: A total of 12 wildtype, 12 Line 1 and 12 Line 66 female mice were used in this study-Line 1 and Line 66 are transgenic mouse models of tauopathy ( Melis et al., 2015). Animals were 2 months old at the beginning of the study. Mice of each genotype were injected intraperitoneally (i.p.) with either vehicle or S1D12 mAb (30 mg/kg), once per week, for six consecutive weeks.
# Seven days post final dose, cardiac puncture blood sampling was performed. mice were anaesthetised using an overdose of sodium pentobarbital (i.p.) and blood was collected via cardiac puncture through a Plastipak syringe pre-rinsed with heparinised saline (10 U/mL) and transferred into a plastic vial containing lithium heparin anticoagulant. Blood samples were centrifuged to obtain plasma at 2,000×g for 5 min at 6° C.
# A three-step assay was performed and analysed by following the previously described plasma screening methods using CA4 antibody capture beads, S1G2 detector (10 ng/ml) and the plasma samples added in 1:8 dilution.
# dGAE aggregates = dGAE aggregates (Homo sapiens, UniProt P10636); experiment: Sandwich ELISA on SDS/Triton X-100 treated dGAE aggregates; type: binding; conditions: S1D12 mAb capture, S1G2 scAb detection; SDS + Triton X-100
# dGAE aggregates, sequence (P10636 614-708): as above
# Procedure: We have noticed Sodium dodecyl sulphate (SDS) can break apart dGA/dGAE aggregates and separate them into smaller fragments by performing an SDS-PAGE. This has been replicated and tested using an ELISA as described below.
# For aggregation, 1000 μL 100 μM dGAE+10 μL 10 mM DTT was added to a ‘LoBind’ microfuge tubes and agitated at 700 RPM/37° C. for 24 hours. Resulting sample centrifuged at 17,000×g/4° C. for 60 min and supernatant discarded to remove left over monomer. Pellet resuspended in half the original volume for future experiments and hereafter referred to as ‘aggregates’. 1 μl of aggregates was added to 1 ml of PBS and SDS was added to a final concentration of 1% (w/v). This was left to incubate on lab bench for 1 h with gentle agitation every 15 minutes. In order to neutralize the SDS effect on ELISA, Triton X-100 added to a final concentration of 3% (v/v) and mixed gently by pipetting to prevent any bubble formation. 200 μl added of this mix was to the first well of an ELISA plate coated with 1 μg/ml S1D12 mAb and blocked with 2% MPBS. Similarly aggregates treated with only SDS or Triton X-100, untreated aggregates, dGAE monomers treated with only SDS or SDS+Titon X-100 were also added to designated wells as controls. All samples were then double diluted across the plate in final volumes of 100 μl. The final column was left with no protein to act as a blank. This was allowed to stand at room temperature for 1 hour followed by the addition of detection scAb-S1G2 at 10 μg/ml. Anti-HuCk HRP labelled secondary antibody was added as described previously and ELISA data generated was represented using the graph below.
# [3] = target: T1, hT40 (T441, SEQ ID NO: 1) (Homo sapiens, UniProt P10636); experiment: Biacore X100 SPR kinetics of scAbs for hT40; type: binding; conditions: scAb format
# T1 construct: Full length tau (hT40)
# T1 sequence (P10636 1-441 isoform P10636-8): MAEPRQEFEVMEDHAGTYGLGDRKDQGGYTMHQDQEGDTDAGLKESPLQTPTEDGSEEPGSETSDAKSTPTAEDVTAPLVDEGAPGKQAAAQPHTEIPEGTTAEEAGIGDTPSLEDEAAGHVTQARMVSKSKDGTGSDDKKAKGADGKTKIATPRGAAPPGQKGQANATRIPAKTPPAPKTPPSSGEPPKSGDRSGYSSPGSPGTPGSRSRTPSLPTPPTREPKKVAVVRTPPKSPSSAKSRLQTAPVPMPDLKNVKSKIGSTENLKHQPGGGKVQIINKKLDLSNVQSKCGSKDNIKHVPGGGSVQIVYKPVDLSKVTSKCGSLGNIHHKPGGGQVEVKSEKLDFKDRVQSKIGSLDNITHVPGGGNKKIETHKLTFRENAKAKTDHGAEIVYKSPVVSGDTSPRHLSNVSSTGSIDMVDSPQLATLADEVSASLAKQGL
# Summary of the method: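 Captured scAb on anti-HuCk CM5 surface (flow cell 1 as reference) in HBS-EP+, capture set for theoretical RMax 100 RU; hT40 injected multi-cycle (0.15625–100 nM) or single-cycle (6.25–100 nM), 120 s association, 420 s dissociation, glycine pH 2.0 regeneration. Kinetics and affinity from 1:1 binding model fit.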
# [4] = test system: 13 aa tau peptides of hT40; experiment: Alanine scanning mutagenesis (ASM) peptide ELISA; type: binding, human; conditions: alanine substituted peptides; numbering SEQ ID NO: 1
# Procedure: Briefly, 5 μg/ml streptavidin (Thermo Fisher) was adsorbed to Nunc 96-well MaxiSorp plates and following incubation at 37° C. for 1 h, the plates were washed as normal and blocked with 2% MPBS. N-terminally biotinylated peptides (Prolmmune Ltd) were added to the plates and incubated for 1 h at 37° C. Subsequently, test scAbs at starting concentrations of 100-500 nM was added and double diluted across the plate for each peptide and incubated for 1 h at 37° C. Rest of the ELISA was conducted as described above and the plates were read at absorbance 450 nm. Immunoreactivity of the scAb of interest was quantified as the % of scAb was bound for each peptide at a chosen concentration (FIG. 15-20).
Molecule,ka (dGAE (SEQ ID NO: 4)),Kd (dGAE (SEQ ID NO: 4)),"cross-reactivity using hT40, dGA and dGAE antigens [1]",Tau proteins/fragments with positive scAb reactivity [1],increase of core tau in plasma vs vehicle ([2]; L1 mice),plasma tau (CA4-S1G2 Simoa) ([2]; L1 mice),"plasma tau (CA4-S1G2 Simoa) ([2]; L66+/+ mice, mean (SEM))",increase of core tau in plasma vs vehicle ([2]; L66 mice),increase of core tau in plasma vs vehicle ([2]; wild-type mice),"plasma tau (CA4-S1G2 Simoa) ([2]; wildtype mice, mean (SEM))",dGAE aggregates detectable (dGAE aggregates),T441 binding in SPR (result in words) ([3]; Table 23),hT40 binding (result in words) ([3]; Table 26 summary),critical binding residues [4],"Epitope ([1]; Table 26 summary, top scAbs, residues of hT40)","Detection scAb (Epitope) ([1]; Table 28 (LoD table), residues of hT40)"
B1,153500 M⁻¹ s⁻¹,0.0014 s⁻¹,specific dGAE binding,297-391 (dGAE),–,–,–,–,–,–,–,–,–,–,–,–
B2,–,–,–,–,more than 100 fold,> 100 ng/mL,3.52 (0.20) ng/ml,more than a threefold increase,less than a two-fold increase,3.57 (0.22) ng/ml,approximately 2 ng/ml,–,–,–,–,–
B3,477000 M⁻¹ s⁻¹,0.0001915 s⁻¹,specific dGAE binding,297-391 (dGAE),–,–,–,–,–,–,–,No T441 binding,No hT40 binding,391 (E),391,E2E8 (E dependant)
